T1: HTRA4, P83105
T1 sequence (P83105 378-476, limits assumed, looked up): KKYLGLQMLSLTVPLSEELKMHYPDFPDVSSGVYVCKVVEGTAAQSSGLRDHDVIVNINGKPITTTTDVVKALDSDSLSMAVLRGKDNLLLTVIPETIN

T2: DFNB31_2, Q9P202
T2 sequence (Q9P202 274-371, limits assumed, looked up): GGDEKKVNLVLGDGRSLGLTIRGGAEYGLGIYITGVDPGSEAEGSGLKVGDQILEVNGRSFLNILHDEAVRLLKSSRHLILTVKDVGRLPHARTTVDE

T3: SNTG1, Q9NSN8
T3 sequence (Q9NSN8 52-150, limits assumed, looked up): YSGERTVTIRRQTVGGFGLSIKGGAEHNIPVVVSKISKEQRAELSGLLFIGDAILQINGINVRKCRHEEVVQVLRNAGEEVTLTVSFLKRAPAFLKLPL

T4: DFNB31_1, Q9P202
T4 sequence (Q9P202 135-233, limits assumed, looked up): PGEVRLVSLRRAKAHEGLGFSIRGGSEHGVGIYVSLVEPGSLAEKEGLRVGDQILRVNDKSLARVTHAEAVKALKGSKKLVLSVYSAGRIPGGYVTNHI

T5: TIAM2, Q8IVF5
T5 sequence (Q8IVF5 885-986, limits assumed, looked up): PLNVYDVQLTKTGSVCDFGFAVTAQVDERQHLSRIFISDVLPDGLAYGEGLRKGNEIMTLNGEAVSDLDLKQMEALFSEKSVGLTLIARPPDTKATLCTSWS

T6: LIN7B, Q9HAP6
T6 sequence (Q9HAP6 88-185, limits assumed, looked up): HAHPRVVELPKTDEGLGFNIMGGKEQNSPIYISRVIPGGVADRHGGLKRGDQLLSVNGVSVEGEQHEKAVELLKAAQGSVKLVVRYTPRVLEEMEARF

T7: MPDZ_10, O75970
T7 sequence (O75970 1624-1722, limits assumed, looked up): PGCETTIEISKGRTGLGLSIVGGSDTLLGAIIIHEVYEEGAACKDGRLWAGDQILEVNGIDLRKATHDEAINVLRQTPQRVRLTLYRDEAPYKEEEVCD

T8: DLG3_3, Q92796
T8 sequence (Q92796 374-475, limits assumed, looked up): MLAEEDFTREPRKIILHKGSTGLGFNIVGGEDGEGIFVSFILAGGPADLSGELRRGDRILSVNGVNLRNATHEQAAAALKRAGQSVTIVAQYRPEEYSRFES

T9: NHERF3_1, Q5T2W1
T9 sequence (Q5T2W1 4-100, limits assumed, looked up): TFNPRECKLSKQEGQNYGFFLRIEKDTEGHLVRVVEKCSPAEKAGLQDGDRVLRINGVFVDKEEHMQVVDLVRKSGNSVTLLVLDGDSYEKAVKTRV

T10: SNTG2, Q9NY99
T10 sequence (Q9NY99 68-166, limits assumed, looked up): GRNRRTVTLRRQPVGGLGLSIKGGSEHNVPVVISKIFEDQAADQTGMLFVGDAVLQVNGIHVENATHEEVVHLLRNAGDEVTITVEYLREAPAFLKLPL

T11: RAPGEF6, Q8TEU7
T11 sequence (Q8TEU7 525-625, limits assumed, looked up): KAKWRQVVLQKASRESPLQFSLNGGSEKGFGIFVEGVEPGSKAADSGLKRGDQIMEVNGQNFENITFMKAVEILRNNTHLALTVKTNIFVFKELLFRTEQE

T12: SNTA1, Q13424
T12 sequence (Q13424 82-180, limits assumed, looked up): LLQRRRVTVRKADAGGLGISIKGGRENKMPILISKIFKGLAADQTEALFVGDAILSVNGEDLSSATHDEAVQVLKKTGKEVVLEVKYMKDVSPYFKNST

T13: DVL3, Q92997
T13 sequence (Q92997 244-331, limits assumed, looked up): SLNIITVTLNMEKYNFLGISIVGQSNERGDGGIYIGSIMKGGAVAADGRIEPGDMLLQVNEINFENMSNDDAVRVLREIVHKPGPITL

B1: PRLHR, P49683 (peptide)
chain: GQNMTVSVVI
B2: CLDN20, P56880 (peptide)
chain: NSTHNLKDYV
B3: SORCS3, Q9UPU3 (peptide)
chain: TKEIPNCTSV
B4: SLC15A2, Q16348 (peptide)
chain: IKLETKKTKL
B5: TNRC6B, Q9UPQ9 (peptide)
chain: DLLGGGSDSI
B6: GUCY1A2, P33402 (peptide)
chain: GTMFLRETSL

target: T1, HTRA4, P83105; assay: holdup assay; parameters: key: below the threshold = too weak to quantify, mostly under pKd 3.1 to 4; conditions: plain residues with an end cap or a label only (N-terminal biotin on a linker: ado-ado)

pKd	Binder
4.15	B1
below the threshold	B2
4.44	B3
3.99	B4
below the threshold	B5
3.85	B6

target: SCRIB_1, Q14160; assay: holdup assay; parameters: key: below the threshold = too weak to quantify, mostly under pKd 3.1 to 4; conditions: plain residues with an end cap or a label only (N-terminal biotin on a linker: ado-ado)
Sequence (Q14160 718-814): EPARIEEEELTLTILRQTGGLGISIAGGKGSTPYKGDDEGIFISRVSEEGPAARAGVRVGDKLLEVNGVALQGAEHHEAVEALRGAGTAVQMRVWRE

pKd	Binder
3.65	B1
below the threshold	B2
4.53	B3
3.79	B4
below the threshold	B5
5.69	B6

target: Inadl_8, Q8NI35; assay: holdup assay; parameters: key: below the threshold = too weak to quantify, mostly under pKd 3.1 to 4; conditions: plain residues with an end cap or a label only (N-terminal biotin on a linker: ado-ado)
Sequence (Q8NI35 1425-1530): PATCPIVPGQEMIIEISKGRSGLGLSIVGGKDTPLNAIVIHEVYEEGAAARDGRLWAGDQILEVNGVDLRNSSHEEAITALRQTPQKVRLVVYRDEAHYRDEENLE

pKd	Binder
3.8	B1
3.82	B2
4.28	B3
3.76	B4
below the threshold	B5
3.9	B6

target: T2, DFNB31_2, Q9P202; assay: holdup assay; parameters: key: below the threshold = too weak to quantify, mostly under pKd 3.1 to 4; conditions: plain residues with an end cap or a label only (N-terminal biotin on a linker: ado-ado)

pKd	Binder
below the threshold	B1
below the threshold	B2
below the threshold	B3
3.55	B4
below the threshold	B5
4.53	B6

target: NOS1, P29475; assay: holdup assay; parameters: key: below the threshold = too weak to quantify, mostly under pKd 3.1 to 4; conditions: plain residues with an end cap or a label only (N-terminal biotin on a linker: ado-ado)
Sequence (P29475 9-101): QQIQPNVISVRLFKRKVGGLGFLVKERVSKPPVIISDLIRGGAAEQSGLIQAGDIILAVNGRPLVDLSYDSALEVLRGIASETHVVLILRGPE

pKd	Binder
3.82	B1
3.58	B2
3.57	B3
3.61	B4
3.9	B5
3.84	B6

target: IL16_1, Q14005; assay: holdup assay; parameters: key: below the threshold = too weak to quantify, mostly under pKd 3.1 to 4; conditions: plain residues with an end cap or a label only (N-terminal biotin on a linker: ado-ado)
Sequence (Q14005 210-306): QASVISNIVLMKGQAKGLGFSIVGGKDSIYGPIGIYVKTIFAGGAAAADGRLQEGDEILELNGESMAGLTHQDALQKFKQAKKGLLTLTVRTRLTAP

pKd	Binder
3.81	B1
below the threshold	B2
below the threshold	B3
below the threshold	B4
below the threshold	B5
4.47	B6

target: T3, SNTG1, Q9NSN8; assay: holdup assay; parameters: key: below the threshold = too weak to quantify, mostly under pKd 3.1 to 4; conditions: plain residues with an end cap or a label only (N-terminal biotin on a linker: ado-ado)

pKd	Binder
below the threshold	B1
below the threshold	B2
4	B3
3.64	B4
below the threshold	B5
5.09	B6

target: PDLIM1, O00151; assay: holdup assay; parameters: key: below the threshold = too weak to quantify, mostly under pKd 3.1 to 4; conditions: plain residues with an end cap or a label only (N-terminal biotin on a linker: ado-ado)
Sequence (O00151 1-87): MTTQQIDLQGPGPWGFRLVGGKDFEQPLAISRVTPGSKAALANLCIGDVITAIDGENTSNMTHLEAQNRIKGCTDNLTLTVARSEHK

pKd	Binder
below the threshold	B1
below the threshold	B2
below the threshold	B3
below the threshold	B4
below the threshold	B5
3.78	B6

target: PARD3_3, Q8TEW0; assay: holdup assay; parameters: key: below the threshold = too weak to quantify, mostly under pKd 3.1 to 4; conditions: plain residues with an end cap or a label only (N-terminal biotin on a linker: ado-ado)
Sequence (Q8TEW0 582-685): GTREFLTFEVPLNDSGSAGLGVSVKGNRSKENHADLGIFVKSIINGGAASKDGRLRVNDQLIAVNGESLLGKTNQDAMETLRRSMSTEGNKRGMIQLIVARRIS

pKd	Binder
4.1	B1
below the threshold	B2
below the threshold	B3
below the threshold	B4
below the threshold	B5
below the threshold	B6

target: FRMPD2_3, Q68DX3; assay: holdup assay; parameters: key: below the threshold = too weak to quantify, mostly under pKd 3.1 to 4; conditions: plain residues with an end cap or a label only (N-terminal biotin on a linker: ado-ado)
Sequence (Q68DX3 1073-1166): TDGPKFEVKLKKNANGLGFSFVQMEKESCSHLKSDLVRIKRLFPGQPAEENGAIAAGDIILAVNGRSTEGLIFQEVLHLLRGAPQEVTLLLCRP

pKd	Binder
below the threshold	B1
below the threshold	B2
below the threshold	B3
below the threshold	B4
3.51	B5
below the threshold	B6

target: T4, DFNB31_1, Q9P202; assay: holdup assay; parameters: key: below the threshold = too weak to quantify, mostly under pKd 3.1 to 4; conditions: plain residues with an end cap or a label only (N-terminal biotin on a linker: ado-ado)

pKd	Binder
below the threshold	B1
below the threshold	B2
4.06	B3
3.79	B4
below the threshold	B5
4.85	B6

target: T5, TIAM2, Q8IVF5; assay: holdup assay; parameters: key: below the threshold = too weak to quantify, mostly under pKd 3.1 to 4; conditions: plain residues with an end cap or a label only (N-terminal biotin on a linker: ado-ado)

pKd	Binder
4.2	B1
below the threshold	B2
below the threshold	B3
below the threshold	B4
3.97	B5
3.66	B6

target: T6, LIN7B, Q9HAP6; assay: holdup assay; parameters: key: below the threshold = too weak to quantify, mostly under pKd 3.1 to 4; conditions: plain residues with an end cap or a label only (N-terminal biotin on a linker: ado-ado)

pKd	Binder
3.79	B1
below the threshold	B2
below the threshold	B3
below the threshold	B4
3.61	B5
4.74	B6

target: T7, MPDZ_10, O75970; assay: holdup assay; parameters: key: below the threshold = too weak to quantify, mostly under pKd 3.1 to 4; conditions: plain residues with an end cap or a label only (N-terminal biotin on a linker: ado-ado)

pKd	Binder
below the threshold	B1
below the threshold	B2
3.83	B3
below the threshold	B4
below the threshold	B5
3.67	B6

target: GORASP2, Q9H8Y8; assay: holdup assay; parameters: key: below the threshold = too weak to quantify, mostly under pKd 3.1 to 4; conditions: plain residues with an end cap or a label only (N-terminal biotin on a linker: ado-ado)

pKd	Binder
below the threshold	B1
below the threshold	B2
3.75	B3
below the threshold	B4
below the threshold	B5
below the threshold	B6

target: T8, DLG3_3, Q92796; assay: holdup assay; parameters: key: below the threshold = too weak to quantify, mostly under pKd 3.1 to 4; conditions: plain residues with an end cap or a label only (N-terminal biotin on a linker: ado-ado)

pKd	Binder
below the threshold	B1
below the threshold	B2
4	B3
3.81	B4
below the threshold	B5
4.64	B6

target: T9, NHERF3_1, Q5T2W1; assay: holdup assay; parameters: key: below the threshold = too weak to quantify, mostly under pKd 3.1 to 4; conditions: plain residues with an end cap or a label only (N-terminal biotin on a linker: ado-ado)

pKd	Binder
below the threshold	B1
4.19	B2
4.36	B3
4.7	B4
below the threshold	B5
5.64	B6

target: T10, SNTG2, Q9NY99; assay: holdup assay; parameters: key: below the threshold = too weak to quantify, mostly under pKd 3.1 to 4; conditions: plain residues with an end cap or a label only (N-terminal biotin on a linker: ado-ado)

pKd	Binder
below the threshold	B1
below the threshold	B2
3.84	B3
3.62	B4
below the threshold	B5
5.27	B6

target: IL16_4, Q14005; assay: holdup assay; parameters: key: below the threshold = too weak to quantify, mostly under pKd 3.1 to 4; conditions: plain residues with an end cap or a label only (N-terminal biotin on a linker: ado-ado)
Sequence (Q14005 1229-1329): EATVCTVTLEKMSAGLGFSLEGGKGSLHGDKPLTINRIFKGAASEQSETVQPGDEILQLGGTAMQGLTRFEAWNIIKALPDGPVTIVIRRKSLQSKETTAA

pKd	Binder
3.62	B1
3.65	B2
below the threshold	B3
3.72	B4
3.61	B5
3.51	B6

target: T11, RAPGEF6, Q8TEU7; assay: holdup assay; parameters: key: below the threshold = too weak to quantify, mostly under pKd 3.1 to 4; conditions: plain residues with an end cap or a label only (N-terminal biotin on a linker: ado-ado)

pKd	Binder
below the threshold	B1
below the threshold	B2
below the threshold	B3
3.48	B4
below the threshold	B5
below the threshold	B6

target: T12, SNTA1, Q13424; assay: holdup assay; parameters: key: below the threshold = too weak to quantify, mostly under pKd 3.1 to 4; conditions: plain residues with an end cap or a label only (N-terminal biotin on a linker: ado-ado)

pKd	Binder
3.89	B1
below the threshold	B2
4.16	B3
3.59	B4
below the threshold	B5
5.64	B6

target: T13, DVL3, Q92997; assay: holdup assay; parameters: key: below the threshold = too weak to quantify, mostly under pKd 3.1 to 4; conditions: plain residues with an end cap or a label only (N-terminal biotin on a linker: ado-ado)

pKd	Binder
below the threshold	B1
below the threshold	B2
below the threshold	B3
below the threshold	B4
below the threshold	B5
below the threshold	B6

target: DLG5_1, Q8TDM6; assay: holdup assay; parameters: key: below the threshold = too weak to quantify, mostly under pKd 3.1 to 4; conditions: plain residues with an end cap or a label only (N-terminal biotin on a linker: ado-ado)
Sequence (Q8TDM6 617-713): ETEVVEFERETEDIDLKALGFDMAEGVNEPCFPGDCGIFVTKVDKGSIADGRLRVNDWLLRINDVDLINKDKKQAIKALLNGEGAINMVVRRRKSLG

pKd	Binder
3.97	B1
below the threshold	B2
below the threshold	B3
3.53	B4
below the threshold	B5
below the threshold	B6

target: LIMK2, P53671; assay: holdup assay; parameters: key: below the threshold = too weak to quantify, mostly under pKd 3.1 to 4; conditions: plain residues with an end cap or a label only (N-terminal biotin on a linker: ado-ado)
Sequence (P53671 143-248): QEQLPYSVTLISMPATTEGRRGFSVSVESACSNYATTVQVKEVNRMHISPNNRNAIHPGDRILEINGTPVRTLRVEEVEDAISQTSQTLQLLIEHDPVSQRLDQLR

pKd	Binder
below the threshold	B1
below the threshold	B2
below the threshold	B3
below the threshold	B4
below the threshold	B5
below the threshold	B6

target: GRIP2_5, Q9C0E4; assay: holdup assay; parameters: key: below the threshold = too weak to quantify, mostly under pKd 3.1 to 4; conditions: plain residues with an end cap or a label only (N-terminal biotin on a linker: ado-ado)
Sequence (Q9C0E4 544-642): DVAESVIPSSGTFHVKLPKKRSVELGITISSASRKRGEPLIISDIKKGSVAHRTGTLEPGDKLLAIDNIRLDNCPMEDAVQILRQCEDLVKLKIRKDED

pKd	Binder
below the threshold	B1
below the threshold	B2
below the threshold	B3
3.58	B4
below the threshold	B5
below the threshold	B6
